# Test results published in PMC2443151.
# Columns and labels:
# [1] = target: PLA2 (phospholipase A2) from Crotalus durissus cascavella rattlesnake venom (Crotalus durissus cascavella)
# [2] = target: PLA2 (phospholipase A2) from Crotalus durissus cascavella rattlesnake venom (Crotalus durissus cascavella); remark: listed apart in the source
substance,measurement,setting,value
"BTL-2, isolectin from the red marine alga Bryothamnion triquetrum (natural protein)","aggregation of washed human platelets induced by PLA2 after 30 min incubation with BTL-2, at 1 μg and 3 μg (72.7% and 48.8%), compared to PLA2 alone",[1],72.7%
same,enzymatic activity of PLA2 on 4-nitro-3-octanoyloxy-benzoic acid after incubation with BTL-2; increase against PLA2 alone,[2],23%
